Measurements from patent US20240383984A1 (Genentech, published 2024).

How the values were obtained:
[1] = biological target: T1, human FcRH5 (full-length, on cells) (human, UniProt Q96RD9 16-977); experiment: cell-based or functional assay
T1 sequence: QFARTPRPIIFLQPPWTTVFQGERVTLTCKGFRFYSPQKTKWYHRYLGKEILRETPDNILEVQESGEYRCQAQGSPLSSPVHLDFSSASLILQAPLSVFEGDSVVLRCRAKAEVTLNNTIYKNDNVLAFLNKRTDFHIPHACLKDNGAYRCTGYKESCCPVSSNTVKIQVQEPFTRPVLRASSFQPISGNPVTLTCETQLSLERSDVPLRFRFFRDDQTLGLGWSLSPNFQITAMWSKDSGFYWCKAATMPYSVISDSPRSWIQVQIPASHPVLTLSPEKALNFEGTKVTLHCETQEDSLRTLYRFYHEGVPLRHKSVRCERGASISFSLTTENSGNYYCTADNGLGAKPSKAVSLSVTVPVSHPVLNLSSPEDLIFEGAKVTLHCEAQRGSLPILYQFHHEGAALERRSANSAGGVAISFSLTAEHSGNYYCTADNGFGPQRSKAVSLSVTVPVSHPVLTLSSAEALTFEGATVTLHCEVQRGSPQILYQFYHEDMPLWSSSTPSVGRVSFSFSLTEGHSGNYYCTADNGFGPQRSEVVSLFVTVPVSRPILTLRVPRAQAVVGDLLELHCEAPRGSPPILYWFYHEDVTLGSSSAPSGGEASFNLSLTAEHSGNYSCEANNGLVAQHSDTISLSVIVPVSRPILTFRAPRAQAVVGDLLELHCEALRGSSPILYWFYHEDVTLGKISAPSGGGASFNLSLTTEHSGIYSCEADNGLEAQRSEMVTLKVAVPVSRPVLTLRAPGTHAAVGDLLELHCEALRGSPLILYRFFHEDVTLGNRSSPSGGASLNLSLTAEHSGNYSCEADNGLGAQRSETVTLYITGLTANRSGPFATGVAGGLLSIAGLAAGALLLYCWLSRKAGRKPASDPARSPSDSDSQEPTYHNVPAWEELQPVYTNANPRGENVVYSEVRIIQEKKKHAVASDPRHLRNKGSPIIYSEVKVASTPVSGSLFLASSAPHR

[2] = biological target: T2, human FcRH5 protein fragment (soluble) (human, UniProt Q96RD9 16-851); experiment: SPR (BIACORE), Human FcRH5, 1:1 binding model
T2 construct: whole entry named; also called soluble human FcRH5; Human FcRH5 (BIACORE analyte)
T2 sequence: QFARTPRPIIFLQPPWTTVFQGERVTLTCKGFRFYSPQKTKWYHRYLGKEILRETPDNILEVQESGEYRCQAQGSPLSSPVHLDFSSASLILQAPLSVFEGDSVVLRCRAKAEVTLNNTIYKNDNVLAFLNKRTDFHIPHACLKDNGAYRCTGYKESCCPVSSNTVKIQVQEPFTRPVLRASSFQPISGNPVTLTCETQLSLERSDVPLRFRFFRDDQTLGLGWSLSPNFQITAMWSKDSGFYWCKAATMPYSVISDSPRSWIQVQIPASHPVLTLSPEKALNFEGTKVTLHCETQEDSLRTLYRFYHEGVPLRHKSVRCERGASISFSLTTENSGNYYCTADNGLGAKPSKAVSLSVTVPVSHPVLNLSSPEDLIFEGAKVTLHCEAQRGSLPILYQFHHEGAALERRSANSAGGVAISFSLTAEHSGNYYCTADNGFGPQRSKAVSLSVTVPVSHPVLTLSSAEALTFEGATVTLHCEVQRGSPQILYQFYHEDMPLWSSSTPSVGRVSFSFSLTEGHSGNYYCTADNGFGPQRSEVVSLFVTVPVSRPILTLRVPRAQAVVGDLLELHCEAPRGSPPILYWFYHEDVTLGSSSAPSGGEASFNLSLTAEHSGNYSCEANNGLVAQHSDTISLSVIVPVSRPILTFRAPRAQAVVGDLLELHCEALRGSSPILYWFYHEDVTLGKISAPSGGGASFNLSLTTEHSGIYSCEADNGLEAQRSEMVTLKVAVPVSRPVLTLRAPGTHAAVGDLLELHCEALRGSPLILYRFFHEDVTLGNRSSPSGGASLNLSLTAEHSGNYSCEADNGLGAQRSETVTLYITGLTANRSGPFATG

[3] = biological target: T3, human FcRH1 (full-length, on SVT2 cells) (human, UniProt Q96LA6 17-429); experiment: flow cytometry on SVT2-FcRH1 cells, PE-labelled secondary
T3 construct: whole, on cells; also called SVT2-FcRH1
T3 sequence (looked up): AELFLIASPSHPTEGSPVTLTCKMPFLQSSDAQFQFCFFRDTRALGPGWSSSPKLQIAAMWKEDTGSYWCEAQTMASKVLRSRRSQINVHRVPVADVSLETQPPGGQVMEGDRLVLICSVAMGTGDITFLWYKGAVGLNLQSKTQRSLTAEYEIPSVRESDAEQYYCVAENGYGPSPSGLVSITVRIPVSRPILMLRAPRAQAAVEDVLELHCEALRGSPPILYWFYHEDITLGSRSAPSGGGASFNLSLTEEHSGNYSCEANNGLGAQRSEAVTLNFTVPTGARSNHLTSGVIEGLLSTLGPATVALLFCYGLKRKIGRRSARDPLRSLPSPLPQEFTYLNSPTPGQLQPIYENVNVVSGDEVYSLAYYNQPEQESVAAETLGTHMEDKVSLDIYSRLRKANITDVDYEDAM
Method: Human FcRH5, cyno FcRH5, human FcRH1, FcRH2, FcRH3, and FcRH4 transfected mouse SVT2 cells were used to test binding and cross-reactivity of FcRH5 TDBs. The method was carried out as follows. Cultured SVT2 cells were lifted using non-enzyme cell dissociation buffer (Sigma, #C5914). 1×10⁵ cells were suspended in 100 μL and incubated with FcRH5 TDBs at 3 μg/ml. […] Cells were washed twice with FACS buffer before flow cytometry analysis was carried out on a FACSCalibur.

[4] = biological target: T2, human FcRH5 protein fragment (soluble); experiment: SPR (BIACORE), hIgG capture format, 1:1 binding model, monovalent affinity; same numbers as FIG. 10B, Hu FcRH5 panel
Method: Kinetic characterization experiments were carried out (see Table 8). In these experiments, binding of soluble FcRH5 protein fragment to purified antibodies in human TDB antibody format was analyzed at six different non-zero concentrations (a 1:3 dilution series, one concentration injected twice as a replicate). Flow rate was set at 40 μl/min and association and dissociation monitored for 600 s.

B1: 1G7.v85/38E4.v1 TDB (bispecific antibody, V domains shown)
VH 1: EVQLVESGPGLVKPSETLSLTCTVSGFSLTRFGVHWVRQPPGKGLEWLGVIWRGGSTDYNAAFVSRLTISKDNSKNQVSLKLSSVTAADTAVYYCSNHYYGSSDYALDNWGQGTLVTVSS
VL 1: DIQMTQSPSSLSASVGDRVTITCKASQDVRNLVVWFQQKPGKAPKLLIYSGSYRYSGVPSRFSGSGSGTDFTLTISSLQPEDFATYYCQQHYSPPYTFGQGTKVEIK
VH 2: EVQLVQSGAEVKKPGASVKVSCKASGFTFTSYYIHWVRQAPGQGLEWIGWIYPENDNTKYNEKFKDRVTITADTSTSTAYLELSSLRSEDTAVYYCARDGYSRYYFDYWGQGTLVTVSS
VL 2: DIVMTQSPDSLAVSLGERATINCKSSQSLLNSRTRKNYLAWYQQKPGQSPKLLIYWTSTRKSGVPDRFSGSGSGTDFTLTISSLQAEDVAVYYCKQSFILRTFGQGTKVEIK
notes: knob-into-hole TDB; also called 1G7.v85 TDB; 1G7.v85 (TDB format)
In the case of B1, the “killing of 293-FcRH5-PD-L1 cells by primed CD8+ cells, TDB alone, EC50” value [1] is reported as 0.63 ng/mL, the “killing of 293-FcRH5-PD-L1 cells, with anti-PD-1 antibody (pembrolizumab), EC50” value [1] is reported as 0.4 ng/mL and the “killing of 293-FcRH5-PD-L1 cells, with anti-PD-L1 antibody, EC50” value [1] is reported as 0.4 ng/mL. For the same binder, the “killing of MOLP-2 cells, EC50” value [1] was 0.058 nM, the “killing of SVT2-FcRH5 cells in DMSO, IC50” value [1] was 0.006 nM and the “killing of SVT2-FcRH5 cells in buffer, IC50” value [1] was 0.007 nM. The “killing of SVT2-FcRH5 cells with 0.1 µM Dex, IC50” value [1] was 0.016 nM, the “killing of plasma cells (PCs), median EC50” value [1] was 25 ng/mL and the Kd [2] was 2.08 nM. For the same binder, the koff [2] was 0.000746 s⁻¹, the kon [2] was 359000 M⁻¹ s⁻¹ and the binding result [3] was “no binding”. The Kd [4] was 2.35 nM, the koff [4] was 0.00104 s⁻¹ and the kon [4] was 441000 M⁻¹ s⁻¹.
